# Measurements from publication PMC12661054, “The CIP2A-TOPBP1 axis facilitates mitotic DNA repair via MiDAS and MMEJ” (Nature Communications, 2025).
# Experiments:
# [1] = target: TOPBP1 BRCT0-1-2, 1-290 (UniProt Q92547); test: biotin-peptide pull-down, Coomassie SDS-PAGE; details: reference: unphosphorylated T1260 peptide; sites T1260
# [2] = target: TOPBP1 (UniProt Q92547); test: GFP-Trap co-IP, western blot; details: reference: eGFP-SLX4 wild type; sites T1260
# [3] = target: TOPBP1 BRCT0-1-2, 1-290 (UniProt Q92547); test: fluorescence polarisation titration; details: reference: pT1260 peptide, untreated; sites T1260
substance,measurement,setting,value
SLX4 1247-1267 (from UniProt Q8IY92) synthetic pT1260 peptide,binding against the reference,[1],gained
SLX4 (from UniProt Q8IY92) eGFP-SLX4 T1260A,binding against the reference,[2],lost
SLX4 1253-1267 (from UniProt Q8IY92) pT1260 peptide treated with lambda phosphatase,binding against the reference,[3],lost
